{"source": "patent US20230287376", "key": {"[1]": {"test_system": "SNAP-FCE-T7 RNAP fusion (Faustovirus / phage T7)", "conditions": "5'-triphosphate; soluble fusion"}, "[2]": {"test_system": "Faustovirus capping enzyme (FCE) (Faustovirus)", "conditions": "5'-triphosphate; soluble, 37 C, 30 min, SAM, GTP"}}}
{"substance": "ppp25mer FAM RNA", "values": [{"measurement": "activity", "setting": "[1]", "result": "> 95", "unit": "% capping"}, {"measurement": "activity", "setting": "[2]", "result": "> 95", "unit": "% capping"}]}
